Measurements: patent publication US20070167369A1 (KYUNGPOOK NATIONAL UNIVERSITY INDUSTRY ACADEMIC COOPERATION …, published 2007)
Values belong to the binder of their own block, whether it stands above or below them.

Experiments:
αvβ3 integrin [1] = target: T1, αvβ3 integrin (human, UniProt P06756 31-1048; P05106 27-788); assay: binding of His-tagged protein to HUVECs in 96-well plates, His-probe-HRP detection, Scatchard analysis
T1 construct: whole, on cells; On human umbilical vein endothelial cells (HUVECs); also called αvβ3 integrin of endothelial cells
Procedure: (§1) HUVECs (3×10⁴ cells/100 μl) were seeded in the 96-well plates and then incubated with increasing concentrations of each protein for 1 hour at room temperature. Cell binding of each protein was detected by His-probe-HRP antibody and quantified by measuring hexosaminidase.

αvβ3 integrin [2] = target: T1, αvβ3 integrin; assay: binding to HUVECs, Scatchard analysis (Example 16); reference: fas-1 domain (βig-h3 D-IV)
Procedure: as §1

T1 sequence (P06756 31-1048, chain 1 of 2): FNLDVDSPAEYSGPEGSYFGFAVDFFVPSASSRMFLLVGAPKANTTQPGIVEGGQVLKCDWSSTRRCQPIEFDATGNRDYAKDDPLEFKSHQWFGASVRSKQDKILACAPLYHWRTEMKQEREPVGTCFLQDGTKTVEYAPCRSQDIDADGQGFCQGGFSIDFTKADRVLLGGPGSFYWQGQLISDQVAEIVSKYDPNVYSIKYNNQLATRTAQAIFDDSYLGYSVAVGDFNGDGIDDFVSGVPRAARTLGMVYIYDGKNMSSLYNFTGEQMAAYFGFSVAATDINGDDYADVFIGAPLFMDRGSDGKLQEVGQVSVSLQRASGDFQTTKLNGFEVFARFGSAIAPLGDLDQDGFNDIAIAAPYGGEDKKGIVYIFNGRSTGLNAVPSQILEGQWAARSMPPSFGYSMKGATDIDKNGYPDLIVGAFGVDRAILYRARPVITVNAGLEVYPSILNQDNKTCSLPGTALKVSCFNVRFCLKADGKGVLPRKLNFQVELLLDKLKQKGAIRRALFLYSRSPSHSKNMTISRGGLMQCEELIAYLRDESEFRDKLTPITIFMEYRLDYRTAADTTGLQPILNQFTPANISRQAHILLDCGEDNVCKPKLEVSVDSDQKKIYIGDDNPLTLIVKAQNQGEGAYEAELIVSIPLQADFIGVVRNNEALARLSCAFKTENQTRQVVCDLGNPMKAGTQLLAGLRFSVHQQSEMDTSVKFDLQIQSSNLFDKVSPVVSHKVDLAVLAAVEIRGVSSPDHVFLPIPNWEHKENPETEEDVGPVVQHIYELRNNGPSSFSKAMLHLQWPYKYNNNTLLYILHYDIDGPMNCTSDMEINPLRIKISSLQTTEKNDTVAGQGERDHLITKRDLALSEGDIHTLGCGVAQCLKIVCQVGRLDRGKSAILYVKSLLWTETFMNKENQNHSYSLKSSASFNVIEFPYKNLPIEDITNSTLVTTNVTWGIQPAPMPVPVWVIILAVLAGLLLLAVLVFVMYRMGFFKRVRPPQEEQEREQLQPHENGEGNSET
T1 sequence (P05106 27-788, chain 2 of 2): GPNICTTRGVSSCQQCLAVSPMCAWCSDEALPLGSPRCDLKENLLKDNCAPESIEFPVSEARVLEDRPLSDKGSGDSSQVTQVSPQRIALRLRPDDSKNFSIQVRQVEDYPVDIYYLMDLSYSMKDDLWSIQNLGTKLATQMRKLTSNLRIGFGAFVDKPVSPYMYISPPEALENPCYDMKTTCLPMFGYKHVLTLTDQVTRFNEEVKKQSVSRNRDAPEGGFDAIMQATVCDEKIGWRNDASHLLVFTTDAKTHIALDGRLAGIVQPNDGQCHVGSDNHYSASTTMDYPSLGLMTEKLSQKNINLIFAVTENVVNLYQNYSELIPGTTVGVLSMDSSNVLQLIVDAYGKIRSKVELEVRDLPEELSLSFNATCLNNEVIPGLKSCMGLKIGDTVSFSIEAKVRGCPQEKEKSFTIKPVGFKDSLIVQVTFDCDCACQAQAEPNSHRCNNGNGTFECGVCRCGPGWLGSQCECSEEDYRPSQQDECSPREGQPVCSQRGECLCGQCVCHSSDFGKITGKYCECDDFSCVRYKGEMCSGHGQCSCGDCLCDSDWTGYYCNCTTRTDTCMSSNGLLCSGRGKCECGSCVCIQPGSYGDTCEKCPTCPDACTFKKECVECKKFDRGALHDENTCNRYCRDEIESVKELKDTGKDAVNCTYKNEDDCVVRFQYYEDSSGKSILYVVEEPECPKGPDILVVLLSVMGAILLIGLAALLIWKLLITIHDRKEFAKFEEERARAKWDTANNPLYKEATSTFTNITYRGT

- Kd (αvβ3 integrin [1]): ~30 µM
B1: βig-h3 D-IV (recombinant protein containing the fourth fas-1 domain of human βig-h3) (ligand)
chain: MGTVMDVLKGDNRFSMLVAAIQSAGLTETLNREGVYTVFAPTNEAFRALPPRERSRLLGDAKELANILKYHIGDEILVSGGIGALVRLKSLQGDKLEVSLKNNVVSVNKEPVAEPDIMATNGVVHVITNVL
notes: Cloned in pET-29b(+), Ni-NTA purified; also called fas-1 protein

- Kd (αvβ3 integrin [1]): ~0.303 µM
- Kd relative to that of the fas-1 domain of βig-h3 (αvβ3 integrin [2]): 100 fold less
B2: recombinant human βig-h3 protein βig-h3 His-β-b (truncated βig-h3) (ligand)
chain: WYQRKICGKSTVISYECCPGYEKVPGEKGCPAALPLSNLYETLGVVGSTTTQLYTDRTEKLRPEMEGPGSFTIFAPSNEAWASLPAEVLDSLVSNVNIELLNALRYHMVGRRVLTDELKHGMTLTSMYQNSNIQIHHYPNGIVTVNCARLLKADHHATNGVVHLIDKVISTITNNIQQIIEIEDTFETLRAAVAASGLNTMLEGNGQYTLLAPTNEAFEKIPSETLNRILGDPEALRDLLNNHILKSAMCAEAIVAGLSVETLEGTTLEVGCSGDMLTINGKAIISNKDILATNGVIHYIDELLIPDSAKTLFELAAESDVSTAIDLFRQAGLGNHLSGSERLTLLAPLNSVFKDGTPPIDAHTRNLLRNHIIKDQLASKYLYHGQTLETLGGKKLRVFVYRNSLCIENSCIAAHDKRGRYGTLFTMDRVLTPPMGTVMDVLKGDNRFSMLVAAIQSAGLTETLNREGVYTVFAPTNEAFRALPPRERSRLLGDAKELANILKYHIGDEILVSGGIGALVRLKSLQGDKLEVSLKNNVVSVNKEPVAEPDIMATNGVVHVITNVLQPPANRPQERGDELADSALEI
notes: also called βig-h3 His-1-b; Wild-type; not shown: vector-derived residues / His tag from the pET-29 vector (Ni-NTA purified, detected with His-probe-HRP)
